In patent CN117736312A (SHANGHAI BOVAX BIOLOGICAL SCIENCE & TECH CO LTD, dated 2024):

Experiments:
Test in all cases: sandwich ELISA (rabbit anti-L1 capture)
HPV16L1 = target: T1, HPV16L1 (human papillomavirus type 16, UniProt P03101 1-505)
T1 sequence: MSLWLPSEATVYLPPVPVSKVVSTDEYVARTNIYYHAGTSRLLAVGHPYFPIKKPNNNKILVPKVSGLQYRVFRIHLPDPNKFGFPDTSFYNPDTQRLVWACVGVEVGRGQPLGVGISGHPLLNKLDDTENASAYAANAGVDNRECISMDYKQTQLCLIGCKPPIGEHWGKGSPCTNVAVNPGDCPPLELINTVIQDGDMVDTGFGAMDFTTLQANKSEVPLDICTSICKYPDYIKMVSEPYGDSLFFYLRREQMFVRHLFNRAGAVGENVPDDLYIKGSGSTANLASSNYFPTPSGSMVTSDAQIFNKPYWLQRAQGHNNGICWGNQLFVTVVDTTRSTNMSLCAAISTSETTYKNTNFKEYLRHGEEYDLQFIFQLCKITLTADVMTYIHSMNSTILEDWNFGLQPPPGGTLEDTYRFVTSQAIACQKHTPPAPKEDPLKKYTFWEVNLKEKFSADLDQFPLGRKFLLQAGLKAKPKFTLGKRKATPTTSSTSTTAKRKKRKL

HPV35L1 = target: T2, HPV35L1 (human papillomavirus type 35, UniProt P27232 1-502)
T2 sequence: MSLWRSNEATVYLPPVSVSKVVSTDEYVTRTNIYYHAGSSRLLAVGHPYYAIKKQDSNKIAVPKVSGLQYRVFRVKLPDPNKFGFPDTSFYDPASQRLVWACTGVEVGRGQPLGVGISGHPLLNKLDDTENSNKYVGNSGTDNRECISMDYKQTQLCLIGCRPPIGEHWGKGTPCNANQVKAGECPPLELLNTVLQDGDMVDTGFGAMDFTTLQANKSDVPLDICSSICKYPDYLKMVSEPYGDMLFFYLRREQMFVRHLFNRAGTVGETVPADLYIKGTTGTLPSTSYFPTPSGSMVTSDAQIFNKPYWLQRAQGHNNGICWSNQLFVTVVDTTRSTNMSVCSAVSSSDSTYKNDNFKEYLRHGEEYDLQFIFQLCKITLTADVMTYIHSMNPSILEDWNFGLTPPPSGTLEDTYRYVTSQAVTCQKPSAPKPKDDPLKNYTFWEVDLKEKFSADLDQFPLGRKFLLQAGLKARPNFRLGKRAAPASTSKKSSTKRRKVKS

HPV39L1 = target: T3, HPV39L1 (human papillomavirus type 39, UniProt P24838 1-505)
T3 sequence: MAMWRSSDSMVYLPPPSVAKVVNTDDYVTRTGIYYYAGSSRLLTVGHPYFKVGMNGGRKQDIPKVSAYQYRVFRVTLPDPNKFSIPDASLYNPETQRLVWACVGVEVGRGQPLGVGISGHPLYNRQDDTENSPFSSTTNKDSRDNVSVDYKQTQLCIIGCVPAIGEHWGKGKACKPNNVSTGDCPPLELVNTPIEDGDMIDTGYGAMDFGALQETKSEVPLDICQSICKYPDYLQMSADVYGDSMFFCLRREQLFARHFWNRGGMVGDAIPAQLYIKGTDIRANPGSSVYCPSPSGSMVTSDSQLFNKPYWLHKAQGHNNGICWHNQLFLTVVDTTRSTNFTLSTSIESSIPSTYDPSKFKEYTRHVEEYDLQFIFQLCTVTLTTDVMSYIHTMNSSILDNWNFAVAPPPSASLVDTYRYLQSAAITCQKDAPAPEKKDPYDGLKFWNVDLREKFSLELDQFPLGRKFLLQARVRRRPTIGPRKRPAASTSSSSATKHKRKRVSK

B1: HPV 59编号为30单克隆抗体 (antibody, V domains shown)
VH: QIQLVQSGPELKKPGETVKISCKASGYTFTDYSMHWVKQAPGKGLKWMGWINTETGEPTYADDFKGRFAFSLETSASTAYLQINNLKIEDTATYFCTRDGYVWYFDVWGAGTTVTVSS
VL: QIVLSQSPAILSASPGEKVTMTCRASSSVNYMHWYQQKPGSSPKPWIYATSNLASGVPARFSGSGSGTSYSLTISRVEAEDAATYYCQQWSSNPIFTFGSGTKLEIK
notes: Mouse hybridoma antibody tested as cell supernatant; also called 59H30
B1: no binding (tested: 原液40μg/ml; 细胞上清1:100) (HPV16L1); no binding (tested: 原液40μg/ml; 细胞上清1:100) (HPV35L1); no binding (tested: 原液40μg/ml; 细胞上清1:100) (HPV39L1).
